The text below walks through data of PMC2636891, “Two Highly Conserved Cysteine Residues in HPV16 L2 Form an Intramolecular Disulfide Bond and Are Critical for Infectivity in Human Keratinocytes” (PLoS ONE, 2009).

Data set [1] concerns the target T1, HPV16 major capsid protein L1 (human papillomavirus type 16, UniProt P03101 1-505, disulfide-linked to other L1 chains in the virions).
T1 construct: major capsid protein L1 of human papillomavirus type 16, expressed from the capsid expression plasmid pXULL; Assembled with L2 and the HPV16 genome into virions; source: 293TT, transfected with pXULL (L1 and L2 expression plasmid), in virions purified by CsCl density gradient
T1 sequence: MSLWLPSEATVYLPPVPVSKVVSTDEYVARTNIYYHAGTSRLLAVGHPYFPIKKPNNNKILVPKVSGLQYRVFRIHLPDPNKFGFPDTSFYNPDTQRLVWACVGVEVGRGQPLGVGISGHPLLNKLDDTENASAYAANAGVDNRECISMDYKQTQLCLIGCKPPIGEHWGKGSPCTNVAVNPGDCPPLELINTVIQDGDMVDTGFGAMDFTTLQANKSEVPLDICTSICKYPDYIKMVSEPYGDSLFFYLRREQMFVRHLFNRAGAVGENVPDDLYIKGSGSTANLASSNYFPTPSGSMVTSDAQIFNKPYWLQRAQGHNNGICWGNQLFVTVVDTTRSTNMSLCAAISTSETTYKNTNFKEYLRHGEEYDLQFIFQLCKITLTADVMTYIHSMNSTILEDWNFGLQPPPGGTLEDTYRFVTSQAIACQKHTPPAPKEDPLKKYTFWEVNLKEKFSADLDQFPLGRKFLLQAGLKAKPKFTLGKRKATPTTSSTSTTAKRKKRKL
The data set can be described thus: co-sedimentation; CsCl-purified virions; SDS-PAGE and Coomassie staining-based densitometry; data not shown. Particulars: partners not purified.

Data set [2] deals with the molecule itself. The experiment in a line: non-reducing denaturing SDS-PAGE with immunoblot; purified virions reacted with 2 mM NEM for 1.5 h at room temperature, mixed with non-reducing SDS loading buffer (2% SDS), 7.5% gel, immunoblot for L1 and L2; shows only disulfide-linked species.

Positions count from the first letter of the chain named. Names may count otherwise.

B1: HPV16 minor capsid protein L2, wild type (natural protein)
chain: MRHKRSAKRTKRASATQLYKTCKQAGTCPPDIIPKVEGKTIAEQILQYGSMGVFFGGLGIGTGSGTGGRTGYIPLGTRPPTATDTLAPVRPPLTVDPVGPSDPSIVSLVEETSFIDAGAPTSVPSIPPDVSGFSITTSTDTTPAILDINNTVTTVTTHNNPTFTDPSVLQPPTPAETGGHFTLSSSTISTHNYEEIPMDTFIVSTNPNTVTSSTPIPGSRPVARLGLYSRTTQQVKVVDPAFVTTPTKLITYDNPAYEGIDVDNTLYFSSNDNSINIAPDPDFLDIVALHRPALTSRRTGIRYSRIGNKQTLRTRSGKSIGAKVHYYYDLSTIDPAEEIELQTITPSTYTTTSHAASPTSINNGLYDIYADDFITDTSTTPVPSVPSTSLSGYIPANTTIPFGGAYNIPLVSGPDIPINITDQAPSLIPIVPGSPQYTIIADAGDFYLHPSYYMLRKRRKRLPYFFSDVSLAA
modifications: intramolecular disulfide bond C22-C28
notes: minor capsid protein L2 of human papillomavirus type 16, expressed from pXULL; AAD33258 is the entry used for the alignment and gi 4927726 the one searched in mass spectrometry; Assembled with L1 into virions; also called wild type L2; source: 293TT, transfected with pXULL (L1 and L2 expression plasmid), in virions purified by CsCl density gradient
B1: in data set [1], the “molecules L2 per virion” value is about 22 molecules L2 per virion.

B2: HPV16 L2 C22/28S (natural protein)
chain: B1 chain with C22S, C28S
notes: minor capsid protein L2 of human papillomavirus type 16 with C22S and C28S, expressed from a pXULL variant made by site directed mutagenesis; Assembled with L1 into virions; also called double mutant; source: 293TT, transfected with mutant pXULL, in virions purified by CsCl density gradient
As for B2, in data set [1], the “molecules L2 per virion” value is about 22 molecules L2 per virion.

B3: HPV16 L2 C28S (natural protein)
chain: B1 chain with C28S
notes: minor capsid protein L2 of human papillomavirus type 16 with C28S, expressed from a pXULL variant made by site directed mutagenesis; Assembled with L1 into virions; also called single C28S mutant; source: 293TT, transfected with mutant pXULL, in virions purified by CsCl density gradient
Broadly, the stoichiometry N is a count of units in the complex or per binding partner. As to B3, the “molecules L2 per virion” value in data set [1] was about 22 molecules L2 per virion. Besides, in data set [2], the “stoichiometry N” value came out at 2.

B4: HPV16 L2 C22S (natural protein)
chain: B1 chain with C22S
notes: minor capsid protein L2 of human papillomavirus type 16 with C22S, expressed from a pXULL variant made by site directed mutagenesis; Assembled with L1 into virions; also called single C22S mutant; source: 293TT, transfected with mutant pXULL, in virions purified by CsCl density gradient
Turning to B4, the “molecules L2 per virion” value in data set [1] is about 22 molecules L2 per virion. In addition, in data set [2], the “stoichiometry N” value came out at 2.
